For 12 molecules, EC50 [nM], 0% HSA results are on record in patent US12679878B2, “CRF2 receptor agonists and their use in therapy” (SANOFI, priority 2020, dated 2026).

This assay addresses human corticotropin-releasing factor 2α (CRF2 α receptor) (human), Q13324. The assay can be described thus: cell-based or functional assay.

Starred links: 1 amine or outer side, 2 acyl side, 3 side chain; linkers in the order of their positions; H or OH if unused. Non-standard residues stand in square brackets, D forms with d. Groups on a side chain read outwards from the residue. No end group written: not given here. *: point of attachment. C18 diacid = O=C(O)CCCCCCCCCCCCCCCCC(=O)*; γGlu = O=C(O)[C@H](CCC(=O)[*:2])N[*:1]; Palmitoyl = CCCCCCCCCCCCCCCC(=O)*; AEEA = NCCOCCOCC(=O)O; Aib = CC(C)(N)C(=O)O

human corticotropin-releasing factor 2α (CRF2 α receptor) (human), Q13324, sequence (Q13324 20-411): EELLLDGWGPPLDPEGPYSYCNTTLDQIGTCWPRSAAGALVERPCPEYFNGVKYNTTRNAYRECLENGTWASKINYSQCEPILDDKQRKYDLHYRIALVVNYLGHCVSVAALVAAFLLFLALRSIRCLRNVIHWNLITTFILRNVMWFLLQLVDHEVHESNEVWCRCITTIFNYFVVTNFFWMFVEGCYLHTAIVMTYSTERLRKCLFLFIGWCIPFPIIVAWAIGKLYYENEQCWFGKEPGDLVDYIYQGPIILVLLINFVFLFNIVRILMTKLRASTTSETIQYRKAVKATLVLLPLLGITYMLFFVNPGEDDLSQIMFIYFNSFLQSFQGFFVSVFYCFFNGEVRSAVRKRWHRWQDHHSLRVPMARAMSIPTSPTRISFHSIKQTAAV

B1: SEQ ID NO: 66 (peptide)
peptide: FTLSLDVPIGLKQILLKQQKQKKERQKAETNVQLLERV-NH2
modifications: not fully specified (residue 12); printed as FTLSLDVPIGLK*QILLKQQKQKKERQKAETNVQLLERV-NH2
As to B1, the EC50 [nM], 0% HSA is 25.4 nM.

B2: SEQ ID NO: 63 (peptide)
peptide: FTLSLDVPIKLKQILLEQQKQKKERQQAETNVQLLERV-NH2
modifications: not fully specified (residue 12); printed as FTLSLDVPIKLK*QILLEQQKQKKERQQAETNVQLLERV-NH2
The molecule B2 gave an EC50 [nM], 0% HSA of 0.63 nM.

B3: SEQ ID NO: 3 (peptide)
peptide: IVLSLDVPIKLK([γGlu-Palmitoyl])KILLEQEKQEKEKQQAEKNAQILAQV-NH2
modifications: N-terminus assumed
SMILES: CCCCCCCCCCCCCCCC(=O)N[C@@H](CCC(=O)NCCCC[C@H](NC(=O)[C@H](CC(C)C)NC(=O)[C@H](CCCCN)NC(=O)[C@@H](NC(=O)[C@@H]1CCCN1C(=O)[C@@H](NC(=O)[C@H](CC(=O)O)NC(=O)[C@H](CC(C)C)NC(=O)[C@H](CO)NC(=O)[C@H](CC(C)C)NC(=O)[C@@H](NC(=O)[C@@H](N)[C@@H](C)CC)C(C)C)C(C)C)[C@@H](C)CC)C(=O)N[C@@H](CCCCN)C(=O)N[C@H](C(=O)N[C@@H](CC(C)C)C(=O)N[C@@H](CC(C)C)C(=O)N[C@@H](CCC(=O)O)C(=O)N[C@@H](CCC(N)=O)C(=O)N[C@@H](CCC(=O)O)C(=O)N[C@@H](CCCCN)C(=O)N[C@@H](CCC(N)=O)C(=O)N[C@@H](CCC(=O)O)C(=O)N[C@@H](CCCCN)C(=O)N[C@@H](CCC(=O)O)C(=O)N[C@@H](CCCCN)C(=O)N[C@@H](CCC(N)=O)C(=O)N[C@@H](CCC(N)=O)C(=O)N[C@@H](C)C(=O)N[C@@H](CCC(=O)O)C(=O)N[C@@H](CCCCN)C(=O)N[C@@H](CC(N)=O)C(=O)N[C@@H](C)C(=O)N[C@@H](CCC(N)=O)C(=O)N[C@H](C(=O)N[C@@H](CC(C)C)C(=O)N[C@@H](C)C(=O)N[C@@H](CCC(N)=O)C(=O)N[C@H](C(N)=O)C(C)C)[C@@H](C)CC)[C@@H](C)CC)C(=O)O
As for B3, the EC50 [nM], 0% HSA was 0.01 nM.

B4: SEQ ID NO: 67 (peptide)
peptide: IVLSLDVPIKLK([AEEA-AEEA-γGlu-C18 diacid])QILLEQEKQKKQREQAETNKQILAQV-NH2
modifications: N-terminus assumed
SMILES: CC[C@H](C)[C@H](N)C(=O)N[C@H](C(=O)N[C@@H](CC(C)C)C(=O)N[C@@H](CO)C(=O)N[C@@H](CC(C)C)C(=O)N[C@@H](CC(=O)O)C(=O)N[C@H](C(=O)N1CCC[C@H]1C(=O)N[C@H](C(=O)N[C@@H](CCCCN)C(=O)N[C@@H](CC(C)C)C(=O)N[C@@H](CCCCNC(=O)COCCOCCNC(=O)COCCOCCNC(=O)CC[C@H](NC(=O)CCCCCCCCCCCCCCCCC(=O)O)C(=O)O)C(=O)N[C@@H](CCC(N)=O)C(=O)N[C@H](C(=O)N[C@@H](CC(C)C)C(=O)N[C@@H](CC(C)C)C(=O)N[C@@H](CCC(=O)O)C(=O)N[C@@H](CCC(N)=O)C(=O)N[C@@H](CCC(=O)O)C(=O)N[C@@H](CCCCN)C(=O)N[C@@H](CCC(N)=O)C(=O)N[C@@H](CCCCN)C(=O)N[C@@H](CCCCN)C(=O)N[C@@H](CCC(N)=O)C(=O)N[C@@H](CCCNC(=N)N)C(=O)N[C@@H](CCC(=O)O)C(=O)N[C@@H](CCC(N)=O)C(=O)N[C@@H](C)C(=O)N[C@@H](CCC(=O)O)C(=O)N[C@H](C(=O)N[C@@H](CC(N)=O)C(=O)N[C@@H](CCCCN)C(=O)N[C@@H](CCC(N)=O)C(=O)N[C@H](C(=O)N[C@@H](CC(C)C)C(=O)N[C@@H](C)C(=O)N[C@@H](CCC(N)=O)C(=O)N[C@H](C(N)=O)C(C)C)[C@@H](C)CC)[C@@H](C)O)[C@@H](C)CC)[C@@H](C)CC)C(C)C)C(C)C
Regarding B4, the EC50 [nM], 0% HSA turned out to be 0.57 nM.

B5: SEQ ID NO: 69 (peptide)
peptide: IVLSLDVPIKLK([AEEA-AEEA-γGlu-C18 diacid])K[Aib]LLEQERQKKQREQAETNKQILAQV-NH2
modifications: N-terminus assumed
SMILES: CC[C@H](C)[C@H](N)C(=O)N[C@H](C(=O)N[C@@H](CC(C)C)C(=O)N[C@@H](CO)C(=O)N[C@@H](CC(C)C)C(=O)N[C@@H](CC(=O)O)C(=O)N[C@H](C(=O)N1CCC[C@H]1C(=O)N[C@H](C(=O)N[C@@H](CCCCN)C(=O)N[C@@H](CC(C)C)C(=O)N[C@@H](CCCCNC(=O)COCCOCCNC(=O)COCCOCCNC(=O)CC[C@H](NC(=O)CCCCCCCCCCCCCCCCC(=O)O)C(=O)O)C(=O)N[C@@H](CCCCN)C(=O)NC(C)(C)C(=O)N[C@@H](CC(C)C)C(=O)N[C@@H](CC(C)C)C(=O)N[C@@H](CCC(=O)O)C(=O)N[C@@H](CCC(N)=O)C(=O)N[C@@H](CCC(=O)O)C(=O)N[C@@H](CCCNC(=N)N)C(=O)N[C@@H](CCC(N)=O)C(=O)N[C@@H](CCCCN)C(=O)N[C@@H](CCCCN)C(=O)N[C@@H](CCC(N)=O)C(=O)N[C@@H](CCCNC(=N)N)C(=O)N[C@@H](CCC(=O)O)C(=O)N[C@@H](CCC(N)=O)C(=O)N[C@@H](C)C(=O)N[C@@H](CCC(=O)O)C(=O)N[C@H](C(=O)N[C@@H](CC(N)=O)C(=O)N[C@@H](CCCCN)C(=O)N[C@@H](CCC(N)=O)C(=O)N[C@H](C(=O)N[C@@H](CC(C)C)C(=O)N[C@@H](C)C(=O)N[C@@H](CCC(N)=O)C(=O)N[C@H](C(N)=O)C(C)C)[C@@H](C)CC)[C@@H](C)O)[C@@H](C)CC)C(C)C)C(C)C
Molecule B5 gave an EC50 [nM], 0% HSA of 0.61 nM.

B6: SEQ ID NO: 60 (peptide)
peptide: FTLSLDVPTKIKQILLKQQKQKKERQQAEKNKQLLERV-NH2
modifications: not fully specified (residue 12); printed as FTLSLDVPTKIK*QILLKQQKQKKERQQAEKNKQLLERV-NH2
Molecule B6 displayed an EC50 [nM], 0% HSA of 0.48 nM.

B7: SEQ ID NO: 4 (peptide)
peptide: IVLSLDVPIGLK([γGlu-Palmitoyl])QKLLKQEKQEKEKQQAETNAKILAQV-NH2
modifications: N-terminus assumed
SMILES: CCCCCCCCCCCCCCCC(=O)N[C@@H](CCC(=O)NCCCC[C@H](NC(=O)[C@H](CC(C)C)NC(=O)CNC(=O)[C@@H](NC(=O)[C@@H]1CCCN1C(=O)[C@@H](NC(=O)[C@H](CC(=O)O)NC(=O)[C@H](CC(C)C)NC(=O)[C@H](CO)NC(=O)[C@H](CC(C)C)NC(=O)[C@@H](NC(=O)[C@@H](N)[C@@H](C)CC)C(C)C)C(C)C)[C@@H](C)CC)C(=O)N[C@@H](CCC(N)=O)C(=O)N[C@@H](CCCCN)C(=O)N[C@@H](CC(C)C)C(=O)N[C@@H](CC(C)C)C(=O)N[C@@H](CCCCN)C(=O)N[C@@H](CCC(N)=O)C(=O)N[C@@H](CCC(=O)O)C(=O)N[C@@H](CCCCN)C(=O)N[C@@H](CCC(N)=O)C(=O)N[C@@H](CCC(=O)O)C(=O)N[C@@H](CCCCN)C(=O)N[C@@H](CCC(=O)O)C(=O)N[C@@H](CCCCN)C(=O)N[C@@H](CCC(N)=O)C(=O)N[C@@H](CCC(N)=O)C(=O)N[C@@H](C)C(=O)N[C@@H](CCC(=O)O)C(=O)N[C@H](C(=O)N[C@@H](CC(N)=O)C(=O)N[C@@H](C)C(=O)N[C@@H](CCCCN)C(=O)N[C@H](C(=O)N[C@@H](CC(C)C)C(=O)N[C@@H](C)C(=O)N[C@@H](CCC(N)=O)C(=O)N[C@H](C(N)=O)C(C)C)[C@@H](C)CC)[C@@H](C)O)C(=O)O
In turn, B7 yielded an EC50 [nM], 0% HSA of 0.04 nM.

B8: SEQ ID NO: 61 (peptide)
peptide: FTLSLDVPTKIKQILLKQQKQKKERQQAETNKQLLERV-NH2
modifications: not fully specified (residue 12); printed as FTLSLDVPTKIK*QILLKQQKQKKERQQAETNKQLLERV-NH2
B8 showed an EC50 [nM], 0% HSA of 0.38 nM.

B9: SEQ ID NO: 65 (peptide)
peptide: FTLSLDVPIGLKQILLKQQKQKKERQQAETNVQLLERV-NH2
modifications: not fully specified (residue 12); printed as FTLSLDVPIGLK*QILLKQQKQKKERQQAETNVQLLERV-NH2
The molecule B9 had an EC50 [nM], 0% HSA of 9.31 nM.

B10: SEQ ID NO: 62 (peptide)
peptide: FTLSLDVPIKLKQILLKQQKQKKERQQAETNVQLLERV-NH2
modifications: not fully specified (residue 12); printed as FTLSLDVPIKLK*QILLKQQKQKKERQQAETNVQLLERV-NH2
Molecule B10 yielded an EC50 [nM], 0% HSA of 0.8 nM.

B11: SEQ ID NO: 68 (peptide)
peptide: IVLSLDVPIKLK([AEEA-AEEA-γGlu-C18 diacid])QILLEQERQKKQREQAETNKQILAQV-NH2
modifications: N-terminus assumed
SMILES: CC[C@H](C)[C@H](N)C(=O)N[C@H](C(=O)N[C@@H](CC(C)C)C(=O)N[C@@H](CO)C(=O)N[C@@H](CC(C)C)C(=O)N[C@@H](CC(=O)O)C(=O)N[C@H](C(=O)N1CCC[C@H]1C(=O)N[C@H](C(=O)N[C@@H](CCCCN)C(=O)N[C@@H](CC(C)C)C(=O)N[C@@H](CCCCNC(=O)COCCOCCNC(=O)COCCOCCNC(=O)CC[C@H](NC(=O)CCCCCCCCCCCCCCCCC(=O)O)C(=O)O)C(=O)N[C@@H](CCC(N)=O)C(=O)N[C@H](C(=O)N[C@@H](CC(C)C)C(=O)N[C@@H](CC(C)C)C(=O)N[C@@H](CCC(=O)O)C(=O)N[C@@H](CCC(N)=O)C(=O)N[C@@H](CCC(=O)O)C(=O)N[C@@H](CCCNC(=N)N)C(=O)N[C@@H](CCC(N)=O)C(=O)N[C@@H](CCCCN)C(=O)N[C@@H](CCCCN)C(=O)N[C@@H](CCC(N)=O)C(=O)N[C@@H](CCCNC(=N)N)C(=O)N[C@@H](CCC(=O)O)C(=O)N[C@@H](CCC(N)=O)C(=O)N[C@@H](C)C(=O)N[C@@H](CCC(=O)O)C(=O)N[C@H](C(=O)N[C@@H](CC(N)=O)C(=O)N[C@@H](CCCCN)C(=O)N[C@@H](CCC(N)=O)C(=O)N[C@H](C(=O)N[C@@H](CC(C)C)C(=O)N[C@@H](C)C(=O)N[C@@H](CCC(N)=O)C(=O)N[C@H](C(N)=O)C(C)C)[C@@H](C)CC)[C@@H](C)O)[C@@H](C)CC)[C@@H](C)CC)C(C)C)C(C)C
B11 showed an EC50 [nM], 0% HSA of 0.2 nM.

B12: SEQ ID NO: 64 (peptide)
peptide: FTLSLDVPTKIKQILLKQQKQKKERQKAETNVQLLERV-NH2
modifications: not fully specified (residue 12); printed as FTLSLDVPTKIK*QILLKQQKQKKERQKAETNVQLLERV-NH2
In turn, B12 had an EC50 [nM], 0% HSA of 13.2 nM.
